Measurements as given in patent US11202830B2, “Human immunodeficiency virus therapies utilizing N332-glycan-dependent antibodies in subjects with low viral loads” (priority 2013, dated 2021).

How the values were obtained:
clade C viruses = settings: cited from earlier work
SHIV-SF162P3 [1] = experiment: Antibody infusion in rhesus monkeys chronically infected with SHIV-SF162P3: plasma viral RNA; format: in vivo, rhesus monkeys (Macaca mulatta)
Text: (§1) Groups were balanced for susceptible and resistant TRIM5α alleles (Lim et al., PLoS Pathog. 6: e1000738, 2010; Letvin et al., Sci Transl Med. 3: 81 ra36, 2011). Animals infected by the intrarectal route with our rhesus-derived SHIV-SF162P3 challenge stock for 9 months prior to antibody administration were utilized for the studies. […] 3BNC117 was manufactured by Celldex Therapeutics in CHO cells and purified by chromatography and sterile filtration. All the antibody preparations were endotoxin free. Cocktails of antibodies or single antibodies were administered to monkeys once or twice by the intravenous route at a dose of 10 mg/kg for each antibody. Monkeys were bled up to three times per week for viral loads. All animal studies were approved by the appropriate Institutional Animal Care and Use Committee (IACUC).
To evaluate the therapeutic potential of broad and potent HIV-1-specific antibodies in nonhuman primates, we infused cocktails of antibodies, as well as single antibodies, in chronically SHIV-infected rhesus monkeys.
We next investigated the therapeutic efficacy of a single infusion of the cocktail of three antibodies as well as a combination of only two antibodies. […] Viral rebound occurred in the majority of animals between day 28 and day 84 (FIGS. 2A and 2B) and was associated with declines of serum antibody titers to undetectable levels (FIGS. 2E and 2F).
It is generally believed that a combination of antibodies directed against multiple epitopes will be required for virologic control (Klein et al., Nature. 492: 118-122, 2012; Poignard et al., Immunity. 10: 431-438, 1999; Trkola et al., Nat Med. 11: 615-622, 2005; Diskin et al., J Exp Med. 210:1235-1249, 2013). However, the current extraordinarily potent and broad antibodies have not previously been evaluated in nonhuman primates with intact immune systems.

[2] = system: SHIV-SF162P3 proviral DNA; experiment: Proviral DNA assay (PBMC, lymph node, gastrointestinal mucosa) after antibody infusion; format: in vivo, rhesus monkeys (Macaca mulatta); settings: day 14 after single infusion 10 mg/kg
Text: as §1
Lymph node and gastrointestinal mucosal biopsies were processed as single cell suspensions essentially as previously described (Li et al., J Virol 85: 11007-11015, 2011). Tissue-specific proviral DNA was quantitated as previously reported (Whitney et al., J Virol. 83: 10840-10843, 2009). Total cellular DNA was isolated from 5×10^6 cells using a QIAamp DNA Blood Mini kit (Qiagen). The absolute quantification of viral DNA in each sample was determined by qPCR using primers specific to a conserved region SIVmac239. All samples were directly compared to a linear virus standard and the simultaneous amplification of a fragment of human GAPDH gene. The sensitivity of linear standards was compared against the 3D8 cell line as a reference standard as described (Whitney et al., J Virol. 83: 10840-10843, 2009). All PCR assays were performed with 100 and 200 ng of sample DNA.

SHIV-SF162P3 [3] = experiment: Sensitivity of SHIV-SF162P3 to 3BNC117; format: cell-based

B1: PGT121: N332 glycan-dependent antibody; CDRs SEQ ID NO: 1-6, VH SEQ ID NO: 7, VL SEQ ID NO: 8 (antibody, V domains shown)
VH: QMQLQESGPGLVKPSETLSLTCSVSGASISDSYWSWIRRSPGKGLEWIGYVHKSGDTNYSPSLKSRVNLSLDTSKNQVSLSLVAATAADSGKYYCARTLHGRRIYGIVAFNEWFTYFYMDVWGNGTQVTVSS
VL: SDISVAPGETARISCGEKSLGSRAVQWYQHRAGQAPSLIIYNNQDRPSGIPERFSGSPDSPFGTTATLTITSVEAGDEADYYCHIWDSRVPTKWVFGGGTTLTVL
clade C viruses covered (clade C viruses): approximately 70% | no evidence of viral rebound for (SHIV-SF162P3 [1]; baseline <3.5 log RNA copies/ml, monkeys 4905 and DN1G): over 100 days | time virtually undetectable viral RNA was maintained after treatment (SHIV-SF162P3 [1]; one infusion on day 0, n=3): at least 15 days | viral RNA after treatment (SHIV-SF162P3 [1]; one infusion on day 0, n=3): virtually undetectable levels of viral RNA within days of treatment | virologic suppression compared to 10-1074, 3BNC117, or VRC07-523 (SHIV-SF162P3 [1]; one infusion on day 0, n=3): extremely potent virologic suppression | animals with rapid virologic control to undetectable levels by day 7 (SHIV-SF162P3 [1]; single i.v. infusion day 0, 10 mg/kg of each antibody): 4 of 4 | outcome in one animal (monkey DN1G) (SHIV-SF162P3 [1]; single infusion 10 mg/kg): long-term virologic control | reduction of proviral DNA in lymph nodes vs DEN3 control ([2]; P=0.05): 4 fold | reduction of proviral DNA in peripheral blood vs DEN3 control ([2]; P=0.05): 6 fold | reduction of proviral DNA in gastrointestinal mucosa vs DEN3 control ([2]; P=0.1): 4 fold

B2: 3BNC117: CD4bs-specific antibody; light chain SEQ ID NO: 257, heavy chain SEQ ID NO: 258 (antibody, listed as Homo sapiens)
heavy: QVQLLQSGAAVTKPGASVRVSCEASGYNIRDYFIHWWRQAPGQGLQWVGWINPKTGQPNNPRQFQGRVSLTRHASWDFDTFSFYMDLKALRSDDTAVYFCARQRSDYWDFDVWGSGTQVTVSS
light: DIQMTQSPSSLSASVGDTVTITCQANGYLNWYQQRRGKAPKLLIYDGSKLERGVPSRFSGRRWGQEYNLTINNLQPEDIATYFCQVYEFVVPGTRLDLKRTVA
sensitivity of the SHIV-SF162P3 challenge stock (SHIV-SF162P3 [3]; applicant's rhesus-derived challenge stock): largely resistant | sensitivity of the cloned SHIV-SF162P3 pseudovirus (SHIV-SF162P3 [3]; cloned pseudovirus): highly sensitive | transient reduction of plasma viral loads (SHIV-SF162P3 [1]; single infusion 10 mg/kg): 0.2-1.1 log
